Measured values from article PMC5493779, “Recognition of a glycosylation substrate by the O-GlcNAc transferase TPR repeats” (Open Biology, 2017).
Where no end group is shown, it is not given here.

Legend:
[1] = target: T1, human O-GlcNAc transferase, truncated (315-1031), as it stands in the substrate:OGT fusion proteins (human, UniProt O15294-3 315-1031); experiment: crystal structure; substrate peptide fused through a 3xGly linker to the N-terminus of OGT 315-1031 (one chain); about 10 mg/ml protein with 5 mM UDP, sitting drop, 0.1 M Tris pH 8.5; one molecule per asymmetric unit; settings: both partners purified
T1 construct: human O-GlcNAc transferase (OGT), codon-optimised, residues 315-1031 starting at Thr315; holds TPR repeats and the catalytic domain; In the crystals this stretch is joined on one chain to the substrate peptide (m2 or m3) by a GGG linker; the whole chains are m4 and m5; also called hOGT; source: E. coli BL21 (DE3) pLysS, purified (Ni-NTA, anion exchange, gel filtration) as part of the fusion …
T1 sequence (looked up): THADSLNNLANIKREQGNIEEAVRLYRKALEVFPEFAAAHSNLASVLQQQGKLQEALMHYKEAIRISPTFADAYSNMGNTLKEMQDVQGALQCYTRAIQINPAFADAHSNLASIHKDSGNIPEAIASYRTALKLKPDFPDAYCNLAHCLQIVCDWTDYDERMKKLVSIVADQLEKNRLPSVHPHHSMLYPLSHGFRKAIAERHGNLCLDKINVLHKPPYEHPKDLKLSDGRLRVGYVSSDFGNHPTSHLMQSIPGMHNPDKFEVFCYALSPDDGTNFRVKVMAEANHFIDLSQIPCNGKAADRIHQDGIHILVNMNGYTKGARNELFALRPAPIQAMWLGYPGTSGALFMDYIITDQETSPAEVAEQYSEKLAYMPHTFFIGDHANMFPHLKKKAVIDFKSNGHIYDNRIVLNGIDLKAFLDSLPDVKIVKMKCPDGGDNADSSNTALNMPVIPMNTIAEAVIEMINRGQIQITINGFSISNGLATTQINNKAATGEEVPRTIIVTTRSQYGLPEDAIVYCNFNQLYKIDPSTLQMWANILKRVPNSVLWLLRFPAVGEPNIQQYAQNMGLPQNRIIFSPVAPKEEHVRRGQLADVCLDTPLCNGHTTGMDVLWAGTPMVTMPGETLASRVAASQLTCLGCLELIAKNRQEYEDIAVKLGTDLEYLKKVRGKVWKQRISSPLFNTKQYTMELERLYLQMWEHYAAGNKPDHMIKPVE

[2] = target: His6-hOGT (312-1031) 5N5A quintuple mutant (human) (UniProt O15294)
[3] = target: T2, His6-hOGT (312-1031), wild type (human) (UniProt O15294)
T2 sequence: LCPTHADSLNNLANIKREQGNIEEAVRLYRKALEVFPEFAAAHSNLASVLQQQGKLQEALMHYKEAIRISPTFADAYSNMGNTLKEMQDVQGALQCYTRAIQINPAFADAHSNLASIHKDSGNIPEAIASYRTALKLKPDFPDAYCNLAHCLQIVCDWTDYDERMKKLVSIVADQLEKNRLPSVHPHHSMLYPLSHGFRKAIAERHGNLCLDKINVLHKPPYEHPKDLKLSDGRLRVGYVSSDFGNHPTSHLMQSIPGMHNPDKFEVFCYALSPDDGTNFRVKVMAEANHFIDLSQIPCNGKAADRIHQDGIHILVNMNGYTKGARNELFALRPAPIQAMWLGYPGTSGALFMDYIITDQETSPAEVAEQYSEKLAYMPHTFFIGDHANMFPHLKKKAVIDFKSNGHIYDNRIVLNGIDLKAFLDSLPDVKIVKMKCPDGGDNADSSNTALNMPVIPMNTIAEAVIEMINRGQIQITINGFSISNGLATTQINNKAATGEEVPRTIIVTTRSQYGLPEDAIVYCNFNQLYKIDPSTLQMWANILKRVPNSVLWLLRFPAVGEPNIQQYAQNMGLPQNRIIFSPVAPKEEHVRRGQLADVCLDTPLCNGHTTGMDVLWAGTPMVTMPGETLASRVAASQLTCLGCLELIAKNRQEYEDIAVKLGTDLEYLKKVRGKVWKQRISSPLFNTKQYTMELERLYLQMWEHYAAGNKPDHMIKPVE

B1: 18-mer TAB1 peptide derived from the S395 glycosylation site (VPYSSAQSTSKTSVTLSL) (peptide)
peptide: VPYSSAQSTSKTSVTLSL
modifications: also: O-GlcNAc on Ser395
notes: In the crystal its C-terminus is joined by a GGG linker to Thr315 of OGT on one chain; the whole chain is m5; Extra density near Ser396 and Ser399 hints at further glycosylation; also called TAB1 C-terminal domain; source: E. coli BL21 (DE3) pLysS, purified (Ni-NTA, anion exchange, gel filtration) as part of the fusion protein
[1]
  binding result: binds

B2: 18-mer HCF1PRO repeat peptide (PPCETHETGTTNTATTAT) (peptide)
peptide: PPCETHETGTTNTATTAT
notes: host cell factor 1 (HCF1), one repeat of the proteolytic processing domain; In the crystal its C-terminus is joined by a GGG linker to Thr315 of OGT on one chain; the whole chain is m4; The PreScission site of the vector was replaced by the peptide and linker; also called HCF1 peptide; host cell factor 1 PPD repeat; source: E. coli BL21 (DE3) pLysS, purified (Ni-NTA, anion exchange, gel …)
[1]
  binding result: binds

B3: TAB1 (7-409) protein (domain or fragment)
chain: SLLQSEQQPSWTDDLPLCHLSGVGSASNRSYSADGKGTESHPPEDSWLKFRSENNCFLYGVFNGYDGNRVTNFVAQRLSAELLLGQLNAEHAEADVRRVLLQAFDVVERSFLESIDDALAEKASLQSQLPEGVPQHQLPPQYQKILERLKTLEREISGGAMAVVAVLLNNKLYVANVGTNRALLCKSTVDGLQVTQLNVDHTTENEDELFRLSQLGLDAGKIKQVGIICGQESTRRIGDYKVKYGYTDIDLLSAAKSKPIIAEPEIHGAQPLDGVTGFLVLMSEGLYKALEAAHGPGQANQEIAAMIDTEFAKQTSLDAVAQAVVDRVKRIHSDTFASGGERARFCPRHEDMTLLVRNFGYPLGEMSQPTPSPAPAAGGRVYPVSVPYSSAQSTSKTSVTLSL
[2]
  reduction of glycosyltransferase activity on TAB1 (7-409) against WT OGT, western blot with an O-GlcNAc Ser395 specific antibody, quantified: 50%

## KKPVSVPYSSAQSTSKTSVTLSL [free TAB1 peptide …]
[3]
  KM of the TAB1 peptide in steady-state kinetics of O-GlcNAc transfer (50 nM hOGT, 50 µM UDP-GlcNAc, UDP formation by fluorescence): 42 µM
